The target of this test is IL-1β receptor of the hepatic sinusoidal endothelium (HSE) cells (mouse) (UniProt P13504). Put plainly: cell-based or functional assay.
Sequence of UniProt P13504 (P13504 20-576): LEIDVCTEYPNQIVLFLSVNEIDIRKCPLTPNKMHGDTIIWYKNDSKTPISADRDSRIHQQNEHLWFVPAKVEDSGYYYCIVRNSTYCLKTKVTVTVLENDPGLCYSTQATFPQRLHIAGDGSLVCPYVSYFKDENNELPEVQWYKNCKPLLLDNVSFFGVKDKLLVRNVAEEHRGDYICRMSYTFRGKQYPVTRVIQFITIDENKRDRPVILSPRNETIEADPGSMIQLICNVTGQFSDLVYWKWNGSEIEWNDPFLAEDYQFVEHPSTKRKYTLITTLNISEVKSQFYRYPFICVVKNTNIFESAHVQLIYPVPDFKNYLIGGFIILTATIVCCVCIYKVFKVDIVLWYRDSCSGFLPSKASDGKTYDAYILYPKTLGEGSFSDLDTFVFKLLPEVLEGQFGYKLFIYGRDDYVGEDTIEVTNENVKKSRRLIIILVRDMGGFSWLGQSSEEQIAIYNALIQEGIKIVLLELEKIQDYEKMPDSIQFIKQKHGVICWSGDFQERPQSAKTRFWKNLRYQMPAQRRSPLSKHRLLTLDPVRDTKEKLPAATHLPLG

Substance “recombinant C. albicans Kre9 (CaKre9) protein expressed in E. coli, fused to an HSV tag and 6 histidine residues (from UniProt O74226 22-271)” came in with an increase of the tumor adhesion (B16M cells) to the HSE with respect to the control of over 150%.

Source of the values: patent US20120183532A1.
